Results published in patent US11306156.

Assays:
[1] = biological target: D3H44 Fab heavy chain L124R_Q179K, C-terminal ABD2-His6 tag; assay: LCCA co-expression, SPR tag read-out; DNA 1:3 norm. to 1:1; competing light chain m11
[2] = biological target: D3H44 Fab heavy chain L124E_L143E_K145T, C-terminal ABD2-His6 tag; assay: as above
[3] = biological target: D3H44 Fab heavy chain L124E_L143E_K145M, C-terminal ABD2-His6 tag; assay: LCCA set 9263 (co-expression; SPR read-out of light-chain tags; L1:L2 DNA 1:3, normalized to 1:1); competing light chain m14
[4] = biological target: D3H44 Fab heavy chain L124R_S186R, C-terminal ABD2-His6 tag; assay: LCCA (co-expression, SPR read-out of light chain tags), L1:L2 DNA 1:3 normalised to 1:1; competitor m17
[5] = biological target: D3H44 Fab heavy chain L124R_S186K, C-terminal ABD2-His6 tag; assay: as above
[6] = biological target: D3H44 Fab heavy chain L124E_L143E_K145T, C-terminal ABD2-His6 tag; assay: as above
[7] = biological target: D3H44 Fab heavy chain L124E_L143D_K145T, C-terminal ABD2-His6 tag; assay: LCCA (co-expression, SPR read-out of light chain tags), L1:L2 DNA 1:3 normalised to 1:1; competitor m16
[8] = biological target: D3H44 Fab heavy chain L124R_Q179K, C-terminal ABD2-His6 tag; assay: as above
[9] = biological target: D3H44 Fab heavy chain L124R_S186R, C-terminal ABD2-His6 tag; assay: as above
[10] = biological target: D3H44 Fab heavy chain L124E_L143E_K145T, C-terminal ABD2-His6 tag; assay: as above
[11] = biological target: D3H44 Fab heavy chain L124R_S186R, C-terminal ABD2-His6 tag; assay: LCCA set 9505 (co-expression; SPR read-out of light-chain tags; L1:L2 DNA 1:3, normalized to 1:1); competing light chain m15
[12] = biological target: D3H44 Fab heavy chain L124E_L143E_K145M, C-terminal ABD2-His6 tag; assay: LCCA set 9259 (co-expression; SPR read-out of light-chain tags; L1:L2 DNA 1:3, normalized to 1:1); competing light chain m17
[13] = biological target: D3H44 Fab heavy chain L124E_L143D_K145T, C-terminal ABD2-His6 tag; assay: LCCA set 9214 (co-expression; SPR read-out of light-chain tags; L1:L2 DNA 1:3, normalized to 1:1); competing light chain m15
[14] = biological target: D3H44 Fab heavy chain L124R_Q179K, C-terminal ABD2-His6 tag; assay: LCCA co-expression, SPR tag read-out; DNA 1:3 norm. to 1:1; competing light chain m13
[15] = biological target: D3H44 Fab heavy chain L124E_L143E_K145M, C-terminal ABD2-His6 tag; assay: as above
[16] = biological target: D3H44 Fab heavy chain L124E_L143E_K145T, C-terminal ABD2-His6 tag; assay: as above
[17] = biological target: D3H44 Fab heavy chain L124E_L143D_K145T, C-terminal ABD2-His6 tag; assay: LCCA (co-expression, SPR read-out of light chain tags), L1:L2 DNA 1:3 normalised to 1:1; competitor m13
[18] = biological target: D3H44 Fab heavy chain L124R_Q179K, C-terminal ABD2-His6 tag; assay: as above
[19] = biological target: D3H44 Fab heavy chain L124E_L143E_K145M, C-terminal ABD2-His6 tag; assay: as above
[20] = biological target: D3H44 Fab heavy chain L124E_L143D_K145M, C-terminal ABD2-His6 tag; assay: as above
[21] = biological target: D3H44 Fab heavy chain L124R_S186K, C-terminal ABD2-His6 tag; assay: LCCA set 9473 (co-expression; SPR read-out of light-chain tags; L1:L2 DNA 1:3, normalized to 1:1); competing light chain m16
[22] = biological target: D3H44 Fab heavy chain L124R_Q179K, C-terminal ABD2-His6 tag; assay: LCCA set 9384 (co-expression; SPR read-out of light-chain tags; L1:L2 DNA 1:3, normalized to 1:1); competing light chain m17
[23] = biological target: D3H44 Fab heavy chain L124E_L143E_K145M, C-terminal ABD2-His6 tag; assay: LCCA set 9257 (co-expression; SPR read-out of light-chain tags; L1:L2 DNA 1:3, normalized to 1:1); competing light chain m15
[24] = biological target: D3H44 Fab heavy chain L124E_L143D_K145T, C-terminal ABD2-His6 tag; assay: LCCA set 9217 (co-expression; SPR read-out of light-chain tags; L1:L2 DNA 1:3, normalized to 1:1); competing light chain m16
[25] = biological target: D3H44 Fab heavy chain L124E_L143E_K145T, C-terminal ABD2-His6 tag; assay: LCCA set 9298 (co-expression; SPR read-out of light-chain tags; L1:L2 DNA 1:3, normalized to 1:1); competing light chain m17
[26] = biological target: D3H44 Fab heavy chain L124E_L143D_K145M, C-terminal ABD2-His6 tag; assay: LCCA set 9176 (co-expression; SPR read-out of light-chain tags; L1:L2 DNA 1:3, normalized to 1:1); competing light chain m15
[27] = biological target: D3H44 Fab heavy chain L124R_S186K, C-terminal ABD2-His6 tag; assay: LCCA set 9451 (co-expression; SPR read-out of light-chain tags; L1:L2 DNA 1:3, normalized to 1:1); competing light chain m15

D3H44 light chain Q124K_V133G_S176R_T178K, N-terminal HA or FLAG tag
H2L2:H2L1 normalized median ratio (% (ratio normalized to 100)) [1]: 4 | H1L1:H1L2 normalized median ratio (% (ratio normalized to 100)) [2]: 89 | H1L1:H1L2 normalized median scalar value ln(r1/f1) [2]: 2.12 | H1L1:H1L2 normalized median ratio (H1L1 part) [3]: 88% | H1L1:H1L2 normalized median scalar value ln(r1/f1) [3]: 1.95 | H2L2:H2L1 normalized median ratio [4]: 6% | H2L2:H2L1 normalized median ratio [5]: 7% | H1L1:H1L2 normalized median ratio [6]: 87% | H1L1:H1L2 normalized median scalar value ln(r1/f1) [6]: 1.89 | H1L1:H1L2 normalized median ratio [7]: 81% | H2L2:H2L1 normalized median ratio [8]: 4% | H2L2:H2L1 normalized median ratio [9]: 8% | H1L1:H1L2 normalized median ratio [10]: 89% | H1L1:H1L2 normalized median scalar value ln(r1/f1) [10]: 2.08 | H2L2:H2L1 normalized median ratio (H2L1 part) [11]: 6% | H1L1:H1L2 normalized median ratio (H1L1 part) [12]: 84% | H1L1:H1L2 normalized median scalar value ln(r1/f1) [12]: 1.67 | H1L1:H1L2 normalized median ratio (H1L1 part) [13]: 85% | H1L1:H1L2 normalized median scalar value ln(r1/f1) [13]: 1.71 | H2L2:H2L1 normalized median ratio (% (ratio normalized to 100)) [14]: 4 | H1L1:H1L2 normalized median ratio (% (ratio normalized to 100)) [15]: 88 | H1L1:H1L2 normalized median scalar value ln(r1/f1) [15]: 1.95 | H1L1:H1L2 normalized median ratio (% (ratio normalized to 100)) [16]: 89 | H1L1:H1L2 normalized median scalar value ln(r1/f1) [16]: 2.08 | H1L1:H1L2 normalized median ratio [17]: 84% | H1L1:H1L2 normalized median scalar value ln(r1/f1) [17]: 1.66 | H2L2:H2L1 normalized median ratio [18]: 4% | H1L1:H1L2 normalized median ratio [19]: 85% | H1L1:H1L2 normalized median scalar value ln(r1/f1) [19]: 1.77 | H1L1:H1L2 normalized median ratio [20]: 85% | H1L1:H1L2 normalized median scalar value ln(r1/f1) [20]: 1.76 | H2L2:H2L1 normalized median ratio (H2L1 part) [21]: 7% | H2L2:H2L1 normalized median ratio (H2L1 part) [22]: 8% | H1L1:H1L2 normalized median ratio (H1L1 part) [23]: 84% | H1L1:H1L2 normalized median scalar value ln(r1/f1) [23]: 1.65 | H1L1:H1L2 normalized median ratio (H1L1 part) [24]: 82% | H1L1:H1L2 normalized median scalar value ln(r1/f1) [24]: 1.52 | H1L1:H1L2 normalized median ratio (H1L1 part) [25]: 88% | H1L1:H1L2 normalized median ratio (H1L1 part) [26]: 83% | H1L1:H1L2 normalized median scalar value ln(r1/f1) [26]: 1.62 | H2L2:H2L1 normalized median ratio (H2L1 part) [27]: 7%
